Assay results: patent EP4616869A1, “FAP TARGETED ANTIBODY-DRUG CONJUGATES” (Oncomatryx Biopharma, S.L., priority 2024, dated 2025)
Like-named read-outs stand apart in the source and are kept apart here. Non-standard residues stand in square brackets, D forms with d. Residues, ends and D or L forms follow the SMILES beside them. *: point of attachment. Dolaproine = CO[C@@H]([C@@H]1CCCN1)[C@@H](C)C(=O)O; Dil = CC[C@H](C)[C@H](NC)[C@@H](CC(=O)O)OC; X1 = C[C@@H](N*)[C@@H](O)c1ccccc1; NMeV = CN[C@H](C(=O)O)C(C)C

What was measured:
[1] = target: Fibroblast activation protein (FAP) on FAP-expressing HT1080-FAP cells (UniProt Q12884); test: cell-based or functional assay
[2] = target: Fibroblast activation protein (FAP) on FAP-expressing HT1080-FAP cells (UniProt Q12884); test: flow cytometry on HT1080-FAP cells, PE-labeled anti-human Fc secondary antibody, MFI
[3] = test system: HCT116 (low Pgp expression); test: Cell viability assay (crystal violet staining), payloads, HCT116; type: cell-based; details: HCT116, 48 hours incubation
Description: (§1) The cytotoxic activity of A1B1 cytolysin and MMAE payloads was analyzed via cell-viability assay using the colorectal cancer cell lines HCT15 (high Pgp expression) and HCT116 (low Pgp expression). The day before the assay, cells were seeded and cultivated overnight at 37 °C. Titration of the payloads diluted in medium was added to the cells and incubated for 48 hours at 37 °C. Finally, cell viability was analyzed by crystal violet staining.

[4] = test system: HCT15 (high Pgp expression); test: Cell viability assay (crystal violet staining), payloads, HCT15; type: cell-based; details: HCT15, 48 hours incubation, read-out: IC 50 HCT15
Description: as §1

[5] = target: T1, Fibroblast activation protein (FAP) on FAP-expressing HT1080-FAP cells (UniProt Q12884 1-760, limits assumed); test: flow cytometry on HT1080-FAP cells, PE-labeled anti-human Fc secondary antibody, MFI
T1 construct: whole, on cells; also called FAPα
T1 sequence (looked up): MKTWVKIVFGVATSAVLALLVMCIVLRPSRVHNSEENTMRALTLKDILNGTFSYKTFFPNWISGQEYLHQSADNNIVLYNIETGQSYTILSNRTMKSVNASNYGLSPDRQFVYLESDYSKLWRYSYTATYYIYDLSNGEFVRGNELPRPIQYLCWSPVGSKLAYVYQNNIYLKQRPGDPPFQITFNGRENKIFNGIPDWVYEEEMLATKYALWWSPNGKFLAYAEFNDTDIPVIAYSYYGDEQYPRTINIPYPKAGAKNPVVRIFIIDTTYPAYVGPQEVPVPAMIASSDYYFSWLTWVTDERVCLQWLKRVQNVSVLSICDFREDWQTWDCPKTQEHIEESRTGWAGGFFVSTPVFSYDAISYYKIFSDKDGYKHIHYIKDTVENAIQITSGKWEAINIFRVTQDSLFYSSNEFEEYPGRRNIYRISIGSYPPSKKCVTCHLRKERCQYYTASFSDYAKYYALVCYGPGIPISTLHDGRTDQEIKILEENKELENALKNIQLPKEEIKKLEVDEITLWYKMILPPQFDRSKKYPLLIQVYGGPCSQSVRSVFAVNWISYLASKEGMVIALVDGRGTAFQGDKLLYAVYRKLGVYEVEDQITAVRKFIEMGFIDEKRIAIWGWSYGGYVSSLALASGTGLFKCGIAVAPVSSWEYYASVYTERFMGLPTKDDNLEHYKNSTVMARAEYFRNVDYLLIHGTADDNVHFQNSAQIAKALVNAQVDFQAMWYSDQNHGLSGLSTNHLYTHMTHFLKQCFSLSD

[6] = target: T1, Fibroblast activation protein (FAP) on …; test: cell-based or functional assay
[7] = test system: HT1080-FAP cells; test: ADC cytotoxic activity, cell viability assay, HT1080-FAP; type: cell-based
Description: (§2) OMTX105 cytotoxic activity was analyzed via cell viability assay using HT1080-FAP and HT1080-WT cells. […] Here, a concentration of half-maximal killing of 64 pM for OMTX105 was determined compared to 750 pM for OMTX705. […] Specificity ratio between both cell lines was 1,205 for OMTX105 while for OMTX705 the value was 82 (Figure 3). Table 4: Comparative in vitro binding and cytotoxic activity values of OMTX105 and OMTX705 ADCs

[8] = test system: Panc007 pancreatic ductal adenocarcinoma patient derived xenograft; test: In vivo efficacy and tolerability in the Panc007 patient-derived xenograft model; parameters: species or system female Athymic nude-Foxn1 (nude/nude) mice; details: for TGI value: day 28
Description: The antitumor activity of OMTX105 vs OMTX705 was evaluated in the Panc007 pancreatic ductal adenocarcinoma patient derived xenograft mode in female Athymic nude-Foxn1 (nude/nude) mice.
Both OMTX105 and OMTX705 were administered intravenously at 5 and 20 mg/kg once a week for 4 weeks.

[9] = test system: HT1080-FAP transfected cells; test: In vivo efficacy and tolerability in the HT1080-FAP tumor model with huPBMCs; parameters: species or system female NOD scid gamma (NSG) mice
Description: To evaluate the in vivo efficacy of OMTX1 05 and OMTX705, both ADCs were tested in female NOD scid gamma (NSG) mice co-inoculated with HT1080-FAP transfected cells and huPBMCs.
After 7 days, mice were randomized according to tumor size in the different treatment groups. Treatments with OMTX105 and OMTX705 as single agents were initiated, both with a weekly intravenous dose of 20 mg/kg over 3 weeks.
Tumor volume and animal weight were measured 3 times a week to monitor the evolution of tumor growth and weight change upon treatment.

[10] = test system: HT1080-WT cells; test: ADC cytotoxic activity, cell viability assay, HT1080-WT; type: cell-based; details: read-out: Concentration of half maximal killing HT1080 WT
Description: as §2

[11] = 5 and 20 mg/kg intravenously once a week for 4 weeks
[12] = weekly intravenous dose of 20 mg/kg over 3 weeks

Q: What does the source list for “OMTX705 antibody-drug conjugate (anti-FAP monoclonal antibody conjugated to a cytolysin payload)”?
A: Concentration of half maximal killing, HT1080FAP (cell viability assay) [1]: 750 pM; Specificity ratio between HT1080WT and HT1080FAP (cell viability assay) [1]: 82; EC50 [2]: 0.204 nM

Q: Which IC50 [3] does the source give for `CC[C@H](C)[C@@H]([C@@H](CC(=O)N1CCC[C@H]1[C@H](OC)[C@@H](C)C(=O)N[C@H](C)[C@@H](O)c1ccccc1)OC)N(C)C(=O)[C@@H](NC(=O)[C@@H](NC)C(C)C)C(C)C` [MMAE, Monomethyl auristatin E] (H-[NMeV]V[Dil][Dolaproine]-X1) here?
A: Its IC50 is 2.5 ± 0.4 nM.

Q: And the IC50 ([3]; Homo sapiens, HCT-116, 48 h)?
A: Its IC50 is 3 nM.

Q: And the IC50 [4]?
A: The IC50 was 39.5 ± 10.1 nM.

Q: And the IC50 ([4]; Homo sapiens, HCT-15, 48 h)?
A: Its IC50 is 40 nM.

B1: OMTX105 antibody-drug conjugate (anti-FAP IgG antibody conjugated with the drug-linker vcMMAE) (antibody, V domains shown)
VH: QVQLVQSGAEVKKPGASVKVSCKASGYTFTENIIHWVRQAPGQGLEWMGWFHPGSGSIKYNEKFKDRVTMTADTSTSTVYMELSSLRSEDTAVYYCARHGGTGRGAMDYWGQGTLVTVSS
VL: DIQMTQSPSSLSASVGDRVTITCRASKSVSTSAYSYMHWYQQKPGKAPKLLIYLASNLESGVPSRFSGSGSGTDFTLTISSLQPEDFATYYCQHSRELPYTFGQGTKLEIKR
modifications: drug-linker vcMMAE on cysteine residues of the antibody (non-site specific, thiol-based); DAR 3.92; the cysteines are not stated
notes: also called OMTX105 ADC; anti-FAP MMAE ADC
Q: B1 was tested. Which EC50 [5] did it give?
A: The EC50 was 0.255 nM.

Q: What about the “Specificity ratio between HT1080WT and HT1080FAP (cell viability assay)” value [6] of the same molecule?
A: Its value is 1200.

B2: OMTX105: anti-FAP IgG antibody conjugated with the drug-linker vcMMAE, through thiol-based reaction on the cysteine residues of the antibody (conjugate)
heavy: QVQLVQSGAEVKKPGASVKVSCKASGYTFTENIIHWVRQAPGQGLEWMGWFHPGSGSIKYNEKFKDRVTMTADTSTSTVYMELSSLRSEDTAVYYCARHGGTGRGAMDYWGQGTLVTVSSASTKGPSVFPLAPSSKSTSGGTAALGCLVKDYFPEPVTVSWNSGALTSGVHTFPAVLQSSGLYSLSSVVTVPSSSLGTQTYICNVNHKPSNTKVDKKVEPKSCDKTHTCPPCPAPPVAGPSVFLFPPKPKDTLMISRTPEVTCVVVDVSHEDPEVKFNWYVDGVEVHNAKTKPREEQYNSTYRVVSVLTVLHQDWLNGKEYKCKVSNKGLPSSIEKTISKAKGQPREPQVYTLPPSRDELTKNQVSLTCLVKGFYPSDIAVEWESNGQPENNYKTTPPVLDSDGSFFLYSKLTVDKSRWQQGNVFSCSVMHEALHNHYTQKSLSLSPGK
light: DIQMTQSPSSLSASVGDRVTITCRASKSVSTSAYSYMHWYQQKPGKAPKLLIYLASNLESGVPSRFSGSGSGTDFTLTISSLQPEDFATYYCQHSRELPYTFGQGTKLEIKRTVAAPSVFIFPPSDEQLKSGTASVVCLLNNFYPREAKVQWKVDNALQSGNSQESVTEQDSKDSTYSLSSTLTLSKADYEKHKVYACEVTHQGLSSPVTKSFNRGEC
Q: What does the source list for B2?
A: EC50 ([7]; HT1080-FAP cells, read-out: Concentration of half maximal killing HT1080FAP): 0.064 ± 0.033 nM; Specificity ratio between HT1080WT and HT1080FAP ([7]; ratio of half maximal killing concentrations, HT1080-WT to HT1080-FAP): 1,205; TGI value ([8]; 5 mg/kg intravenously once a week for 4 weeks): 85%; TGI value ([8]; 20 mg/kg intravenously once a week for 4 weeks): 136%; adverse effects or animal death [8, 11]: no adverse effects or animal death; tolerability (body weight data and clinical observations) [8, 11]: well tolerated; weight loss ([8]; both 5 mg/kg and 20 mg/kg, after 56 days): no weight loss observed; tolerability ([9]; 20 mg/kg, 21-day test period): well tolerated; complete response [9, 12]: complete response in this model at day 7; percentage tumor growth inhibition (TGI) [9, 12]: 104.98%; weight loss, toxic effect ([9]; weekly intravenous dose of 20 mg/kg, 21-day test period): No weight loss, nor toxic effect; EC50 [10]: 77.2 nM
